Tests used:
MM.1s cells = type: in vivo, mouse
Procedure: FIG. 18: The bispecific […] VHH prolongs survival in vivo. Immunodeficient NSG mice were irradiated on day −1 and grafted (i.v.) with 2.5*10^6 MM.1s cells on day 0. Mice received PBS or human Vγ9Vδ2-T cells (1*10^7 cells; both i.v.) on days 7, 14 and 21 followed by PBS or V19S76K-5C8 (VHH; 5 mg/kg; both i.p.) twice weekly starting on day 9. (A) Schematic overview of treatment schedule. (B) Kaplan-Meier analyses of mouse survival (control: n=6; V19S76K-5C8 (VHH): n=6, Vγ9Vδ2-T cells: n=8, Vγ9Vδ2-T cells+V19S76K-5C8 (VHH): n=8). CD40 expression on MM.1s cells (human CD45^+CD38^+ cells) in the (C) bone marrow (BM) and (D) plasmacytomas at the time of sacrifice. (E) Body weight after 7 weeks of treatment relative to individual body weight at time of tumor injection. **P<0.01, ***P<0.001. Data are presented as mean and SD. (B: Mantel-Cox logrank test followed by Holm-Sidak's post hoc test, C: one-way ANOVA followed by Dunnett's post hoc test compared to control mice, D: unpaired t-test).
To study the effects of the bispecific VHH on tumor growth in vivo, immunodeficient NSG mice were injected with cells of MM.1s, a human multiple myeloma cell line. The tumor cells were allowed to grow out and engraft for 1 week before mice received the first of three weekly i.v. injections with either human Vγ9Vδ2-T cells or PBS, followed by twice weekly i.p. injections with V19S76K-5C8 or PBS (FIG. 18A).

[1] = system: Vγ9Vδ2-T cells from CLL patients; experiment: Cytokine and degranulation assay: autologous Vγ9Vδ2-T cells from CLL patients; type: cell-based, human; conditions: 10 nM, overnight with autologous CLL cells
Procedure: (§1) PBMCs from CLL patients were obtained, cryopreserved and thawed as described in Example 3.
CLL PBMCs were partially depleted of CD19^+ CLL cells using magnetic beads (130-050-301, Miltenyi Biotec. ±50% of the PBMCs were CD19^+ after CD19 depletion). PBMCs were then cultured overnight with V19S76K-5C8 (10 nM) or medium control in the presence of Brefeldin A, GolgiStop and anti-CD107a to measure cytokine production and degranulation as described in Example 11. In contrast to Example 11, surface staining included PE-conjugated anti-Vγ9-TCR (2256535, Sony) and FITC-conjugated goat-anti-Ilama IgG-heavy and light chain antibodies (A160-100F, Bethyl Laboratories Inc.)

[2] = system: CD40-transfected HEK293T cells; experiment: Cytotoxicity assay: CD40-transfected HEK293T target cells with Vγ9Vδ2-T cells; type: cell-based, human
Procedure: HEK293T cells, either wildtype (WT) or transfected with human CD40, were grown as described in Example 2. Vγ9Vδ2-T cells were grown as described in Example 7.
The cytotoxicity experiment, viability measurement and flow cytometry were performed as described in Example 12.

[3] = system: CD40-stimulated CLL cells; experiment: Cytotoxicity against CLL cells cultured on 3T3 or CD40L+ 3T40L fibroblasts; type: cell-based, human; conditions: with Vγ9Vδ2-T cells 1:1, V19S76K-5C8 100 nM; 3T3 versus 3T40L; FIG. 14
Procedure: Primary CLL cells were obtained, cryopreserved and thawed as described in Example 3. 3T3 fibroblasts, either WT or transfected with human CD40L (3T40L), were grown in complete IMDM. Vγ9Vδ2-T cells were grown as described in Example 7.
Primary CLL cells were cultured for 72 hours on irradiated 3T3 or 3T40L fibroblasts to induce CD40 stimulation.
Cells were then harvested and cultured overnight either with venetoclax (10 nM) as described in Example 10, or with Vγ9Vδ2-T cells and V19S76K-5C8 as described in Example 12. Viability measurement and flow cytometry were performed as described in Example 10.

[4] = biological target: T1, human CD40 (CD40-transfected HEK293T cells) (Homo sapiens, UniProt P25942); experiment: Bispecific VHH binding to CD40-transfected HEK293T cells, anti-llama IgG flow cytometry; conditions: 1 μM; FIG. 5
T1 construct: expressed in transfected cells; host or cells: HEK293T
Procedure: The embryonic kidney cell line HEK293T, either wildtype (WT) or transfected with human CD40, was grown in complete DMEM.
To assess VHH binding, cells were incubated with V19S76K-5C8 (1 μM) or medium control for 30 minutes at 37° C. Bound VHH was detected by incubation with FITC-conjugated goat-anti-llama IgG-heavy and light chain antibodies (A160-100F, Bethyl Laboratories Inc., Montgomery, Tex., USA) for 20 minutes at 4° C.
After 48 hours, cells were analyzed by flow cytometry as described in Example 2.

CD19+ CLL cells = experiment: Cytotoxicity of CLL cells by autologous CD3+ cells, live cell count with counting beads; type: cell-based, human; conditions: 10 nM, overnight, CD3+:CD19+ 10:1, autologous; FIG. 16
Procedure: as §1
CD3^+ cells were isolated from CLL PBMCs using magnetic beads (purity ≥93%; 130-050-101, Miltenyi Biotec) to simultaneously enrich for Vγ9Vδ2-T cells. CD19^+ CLL cells were isolated from the same sample using magnetic beads (purity ≥93%; 130-050-301, Miltenyi Biotec). CD3^+ cells were cultured overnight with CD19^+ CLL cells in a 10:1 ratio with V19S76K-5C8 (10 nM) or medium control.
Samples were incubated with Fixable Viability Dye eF780 (65-0865-14), PerCPeF710-conjugated anti-CD3), PE-conjugated anti-CD5 (12-0059-42, all Thermo Fisher Scientific) and FITC-conjugated anti-CD20 (A07772, Beckman Coulter) antibodies. Live CLL cells were then quantified using counting beads (01-1234-42, Thermo Fisher Scientific) on a FACSCanto cytometer (BD Biosciences).

T1 sequence (P25942 21-277): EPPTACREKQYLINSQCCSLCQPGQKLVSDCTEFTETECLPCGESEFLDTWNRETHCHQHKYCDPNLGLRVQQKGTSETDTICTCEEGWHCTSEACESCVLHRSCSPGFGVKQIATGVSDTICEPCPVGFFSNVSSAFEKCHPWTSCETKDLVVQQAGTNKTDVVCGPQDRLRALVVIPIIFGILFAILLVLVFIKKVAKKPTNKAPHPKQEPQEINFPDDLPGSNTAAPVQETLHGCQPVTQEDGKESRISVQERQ

B1: V19S76K-5C8: tag-less bispecific anti-CD40-anti-Vγ9Vδ2-TCR VHH, SEQ ID NO:23 (protein)
VHH: QVQLQESGGGLVQAGGSLRLSCAASGRTFGRSAMGWFRQAPGKEREFVAAIGTRGGSTKYADSVKGRFTISTDNAKNTVYLQMDSLKPEDTAVYRCAVRGPGYPSAAIFQDEYHYWGQGTQVTVSSGGGGSEVQLVESGGGLVQAGGSLRLSCAASGRPFSNYAMGWFRQAPGKEREFVAAISWSGGSTSYADSVKGRFTISRDNAKNTVYLQMNSPKPEDTAIYYCAAQFSGADYGFGRLGIRGYEYDYWGQGTQVTVSS
modifications: antibody sequence
With B1 the median overall survival (MM.1s cells; V19S76K-5C8 5 mg/kg i.p. twice weekly plus human Vγ9Vδ2-T cells i.v., control group 47 days, FIG. 18B) was 80 days, the overall survival (MM.1s cells; V19S76K-5C8 alone, without Vγ9Vδ2-T cells, FIG. 18B) was “Neither V19S76K-5C8 alone or the Vγ9Vδ2-T cells alone significantly improved overall survival” and the “overall survival versus control group” value (MM.1s cells; V19S76K-5C8 plus Vγ9Vδ2-T cells, FIG. 18B) was “lived significantly longer”. For the same molecule, the “CD40 expression on malignant cells in the bone marrow versus control mice” value (MM.1s cells; V19S76K-5C8 plus Vγ9Vδ2-T cells, at time of sacrifice, FIG. 18C) was “significantly lower”, the “CD40 expression on malignant plasma cells in plasmacytomas” value (MM.1s cells; V19S76K-5C8 plus Vγ9Vδ2-T cells, at time of sacrifice, FIG. 18D) was “A similar trend was observed” and the “production of IFN-γ, TNF-α and IL-2 by Vγ9Vδ2-T cells from CLL patients” value ([1]; FIG. 15A-C) was “produced the cytokines IFN-γ”. The “Vγ9Vδ2-T cell degranulation (CD107a expression)” value ([1]; FIG. 15D) was “induced Vγ9Vδ2-T cell degranulation”, the “lysis of CD40-transfected HEK293T cells” value ([2]; overnight with Vγ9Vδ2-T cells, 1:1 ratio, FIG. 12) was “strongly enhanced” and the “lysis of either WT or CD40-transfected HEK293T cells” value ([2]; without Vγ9Vδ2-T cells) was “did not induce lysis”. For the same molecule, the “cytotoxicity in unstimulated versus CD40-stimulated CLL cells” value [3] was “induced cytotoxicity in unstimulated and CD40-stimulated CLL cells to a similar extent”, the “binding to CD40-expressing HEK293T cells” value [4] was “binds to the CD40-expressing HEK293T cells” and the “live CLL cells versus medium control” value (CD19+ CLL cells) was “Fewer CLL cells were alive”.

— US20220135694A1, “NOVEL CD40-BINDING ANTIBODIES” (LAVA THERAPEUTICS B.V., priority 2019, published 2022)
